Assay results published in publication PMC10397247.

How the values were obtained:
Assay in all cases: two-hybrid library CCmax;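 note: natural log of median RNA to DNA barcode read ratio; higher means stronger binding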
4H451-AA = target: T1, 4H451-AA; conditions: mean of both orientations
T1 chain: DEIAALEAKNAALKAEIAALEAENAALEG

4H_APH = target: T2, 4H_APH; conditions: mean of both orientations
T2 chain: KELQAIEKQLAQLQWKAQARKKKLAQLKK

4H3049-AA = target: T3, 4H3049-AA; conditions: mean of both orientations
T3 chain: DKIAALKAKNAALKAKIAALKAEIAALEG

4H_GCN4 = conditions: mean of both orientations
Sequence of 4H_GCN4 (chain, as listed by the source): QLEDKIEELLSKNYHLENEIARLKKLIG

4H3905-AA = target: T4, 4H3905-AA; conditions: mean of both orientations
T4 chain: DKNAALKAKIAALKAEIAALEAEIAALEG

4H2736-AA = target: T5, 4H2736-AA; conditions: mean of both orientations
T5 chain: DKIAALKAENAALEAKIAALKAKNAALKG

O13-AA = target: T6, O13-AA; conditions: mean of both orientations
T6 chain: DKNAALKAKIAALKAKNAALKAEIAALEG

4H2622-AA = target: T7, 4H2622-AA
T7 chain: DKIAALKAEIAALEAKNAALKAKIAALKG

4H3590-AA = target: T8, 4H3590-AA; conditions: mean of both orientations
T8 chain: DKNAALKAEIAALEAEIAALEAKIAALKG

4H2705-AA = target: T9, 4H2705-AA; conditions: mean of both orientations
T9 chain: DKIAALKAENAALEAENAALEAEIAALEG

4H2888-AA = target: T10, 4H2888-AA; conditions: mean of both orientations
T10 chain: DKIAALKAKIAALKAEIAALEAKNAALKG

4H_BCR = target: T11, 4H_BCR; conditions: mean of both orientations
T11 chain: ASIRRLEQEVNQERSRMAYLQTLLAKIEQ

4H4038-AA = target: T12, 4H4038-AA; conditions: mean of both orientations
T12 chain: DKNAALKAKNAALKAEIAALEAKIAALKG

O11-AA = target: T13, O11-AA; conditions: mean of both orientations
T13 chain: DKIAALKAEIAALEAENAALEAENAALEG

O14-AA = target: T14, O14-AA; conditions: mean of both orientations
T14 chain: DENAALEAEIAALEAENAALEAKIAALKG

4H3587-AA = target: T15, 4H3587-AA; conditions: mean of both orientations
T15 chain: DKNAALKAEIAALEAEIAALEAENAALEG

GCN2_T = conditions: mean of both orientations
4H384-AA = target: T16, 4H384-AA; conditions: mean of both orientations
T16 chain: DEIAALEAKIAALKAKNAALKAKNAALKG

4H3625-AA = target: T17, 4H3625-AA; conditions: mean of both orientations
T17 chain: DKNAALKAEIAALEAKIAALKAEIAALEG

4H510-AA = target: T18, 4H510-AA; conditions: mean of both orientations
T18 chain: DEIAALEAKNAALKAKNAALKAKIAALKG

4H337-AA = target: T19, 4H337-AA; conditions: mean of both orientations
T19 chain: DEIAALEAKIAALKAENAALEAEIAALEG

4H43-AA = target: T20, 4H43-AA; conditions: mean of both orientations
T20 chain: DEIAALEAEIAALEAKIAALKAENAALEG

4H4033-AA = target: T21, 4H4033-AA; conditions: mean of both orientations
T21 chain: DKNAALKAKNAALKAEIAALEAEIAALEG

4H2614-AA = target: T22, 4H2614-AA; conditions: mean of both orientations
T22 chain: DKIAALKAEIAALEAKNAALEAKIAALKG

4H481-AA = target: T23, 4H481-AA; conditions: mean of both orientations
T23 chain: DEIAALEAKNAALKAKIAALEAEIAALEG

4H662-AA = target: T24, 4H662-AA; conditions: mean of both orientations
T24 chain: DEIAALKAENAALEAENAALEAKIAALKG

4H2935-AA = target: T25, 4H2935-AA; conditions: mean of both orientations
T25 chain: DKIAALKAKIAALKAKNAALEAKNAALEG

4H2608-AA = target: T26, 4H2608-AA; conditions: mean of both orientations
T26 chain: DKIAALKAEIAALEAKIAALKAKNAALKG

4H2513-AA = target: T27, 4H2513-AA; conditions: mean of both orientations
T27 chain: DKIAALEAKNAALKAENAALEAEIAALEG

4H2726-AA = target: T28, 4H2726-AA; conditions: mean of both orientations
T28 chain: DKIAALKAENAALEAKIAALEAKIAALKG

4H2211-AA = target: T29, 4H2211-AA
T29 chain: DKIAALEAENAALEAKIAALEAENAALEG

4H327-AA = target: T30, 4H327-AA; conditions: mean of both orientations
T30 chain: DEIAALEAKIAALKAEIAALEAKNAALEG

4H3922-AA = target: T31, 4H3922-AA; conditions: mean of both orientations
T31 chain: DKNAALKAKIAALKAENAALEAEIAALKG

4H2238-AA = target: T32, 4H2238-AA; conditions: mean of both orientations
T32 chain: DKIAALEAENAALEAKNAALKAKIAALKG

4H369-AA = target: T33, 4H369-AA; conditions: mean of both orientations
T33 chain: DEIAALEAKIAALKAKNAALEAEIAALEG

4H55-AA = target: T34, 4H55-AA; conditions: mean of both orientations
T34 chain: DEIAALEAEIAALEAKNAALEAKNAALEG

4H2536-AA = target: T35, 4H2536-AA; conditions: mean of both orientations
T35 chain: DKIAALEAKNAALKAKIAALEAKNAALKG

4H3664-AA = target: T36, 4H3664-AA; conditions: mean of both orientations
T36 chain: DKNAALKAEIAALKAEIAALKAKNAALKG

4H3605-AA = target: T37, 4H3605-AA; conditions: mean of both orientations
T37 chain: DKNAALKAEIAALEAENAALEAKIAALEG

Binder: DKIAALKAEIAALEAKNAALKAKIAALKG [4H2622-AA]
- interaction score (4H451-AA): -0.0617
- interaction score (4H_APH): -1.87
- interaction score (4H3049-AA): 0.212
- interaction score (4H_GCN4): 0.309
- interaction score (4H3905-AA): 1.43
- interaction score (4H2736-AA): -0.125
- interaction score (O13-AA): 0.551
- interaction score (4H2622-AA): 1.07
- interaction score (4H3590-AA): 0.684
- interaction score (4H2705-AA): 0.956
- interaction score (4H2888-AA): 0.116
- interaction score (4H_BCR): -0.274
- interaction score (4H4038-AA): -1.2
- interaction score (O11-AA): 1.62
- interaction score (O14-AA): 2.2
- interaction score (4H3587-AA): 0.659
- interaction score (GCN2_T): 0.0302
- interaction score (4H384-AA): -1.12
- interaction score (4H3625-AA): 1.6
- interaction score (4H510-AA): -0.508
- interaction score (4H337-AA): 2.35
- interaction score (4H43-AA): 1.57

Binder: DKIAALEAENAALEAKIAALEAENAALEG [4H2211-AA]
- interaction score (4H4033-AA): -1.42
- interaction score (4H2614-AA): -1.44
- interaction score (4H481-AA): 1.2
- interaction score (4H662-AA): -1.54
- interaction score (4H2935-AA): -1.25
- interaction score (4H2608-AA): -0.966
- interaction score (4H2513-AA): -1.48
- interaction score (4H2726-AA): 0.569
- interaction score (4H2211-AA): -0.565
- interaction score (4H327-AA): -1.1
- interaction score (4H3922-AA): -1.15
- interaction score (4H3625-AA): -1.16
- interaction score (4H2238-AA): -1.07
- interaction score (4H369-AA): -1.37
- interaction score (4H55-AA): -1.44
- interaction score (4H2536-AA): 1.92
- interaction score (4H3664-AA): -1.82
- interaction score (4H3605-AA): -1.6
